# Laboratory results as given in publication PMC8749442 (iScience, 2021).
# Columns and labels:
# [1] = molecular target: the molecule itself; assay: cryo-EM structure
# [2] = molecular target: GroEL (wild-type bacterial chaperonin) (UniProt P0A6F5 1-548); assay: cryo-EM structure
# Sequence of GroEL (wild-type bacterial chaperonin) (P0A6F5 whole entry): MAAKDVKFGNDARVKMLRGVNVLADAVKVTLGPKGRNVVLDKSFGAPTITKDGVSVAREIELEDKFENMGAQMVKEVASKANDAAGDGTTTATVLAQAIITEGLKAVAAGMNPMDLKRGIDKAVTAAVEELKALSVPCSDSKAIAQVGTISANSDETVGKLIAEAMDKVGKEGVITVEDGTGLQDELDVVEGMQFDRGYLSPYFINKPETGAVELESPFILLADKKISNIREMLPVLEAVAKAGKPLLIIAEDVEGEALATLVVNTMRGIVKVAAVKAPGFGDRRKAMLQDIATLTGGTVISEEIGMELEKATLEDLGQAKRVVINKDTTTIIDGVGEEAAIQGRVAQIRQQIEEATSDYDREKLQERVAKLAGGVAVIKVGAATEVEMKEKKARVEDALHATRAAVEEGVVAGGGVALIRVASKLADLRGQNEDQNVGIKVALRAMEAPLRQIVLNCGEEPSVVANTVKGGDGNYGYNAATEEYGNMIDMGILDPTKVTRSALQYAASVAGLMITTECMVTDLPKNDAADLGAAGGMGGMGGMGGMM
binder,measurement,setting,value
GroES (co-chaperone of GroEL) (natural protein) MNIRPLHDRVIVKRKEVETKSAGGIVLTGSAAAKSTRGEVLAVGNGRILENGEVKPLDVKVGDIVIFNDGYGVKSEKIDNEEVLIMSESDILAIVEA,binding result,[1],binds
same,binding result,[2],binds
